Assay results taken from patent US20220380471A1 (US Dept. of Health and Human Services, published 2022).
Residue numbers refer to the chain shown, from its start. Each block holds one binder with its values, some of them ahead of it.

Legend:
[1] = biological target: T1, B7H3-hFc (human, UniProt Q5ZPR3 29-456); test: ELISA, B7H3-hFc coated, VH-His-FLAG detected with anti-FLAG-HRP
T1 construct: also called recombinant B7H3-hFc; B7H3 ECD fused with human IgG1 Fc; not shown: human IgG1 Fc
T1 sequence: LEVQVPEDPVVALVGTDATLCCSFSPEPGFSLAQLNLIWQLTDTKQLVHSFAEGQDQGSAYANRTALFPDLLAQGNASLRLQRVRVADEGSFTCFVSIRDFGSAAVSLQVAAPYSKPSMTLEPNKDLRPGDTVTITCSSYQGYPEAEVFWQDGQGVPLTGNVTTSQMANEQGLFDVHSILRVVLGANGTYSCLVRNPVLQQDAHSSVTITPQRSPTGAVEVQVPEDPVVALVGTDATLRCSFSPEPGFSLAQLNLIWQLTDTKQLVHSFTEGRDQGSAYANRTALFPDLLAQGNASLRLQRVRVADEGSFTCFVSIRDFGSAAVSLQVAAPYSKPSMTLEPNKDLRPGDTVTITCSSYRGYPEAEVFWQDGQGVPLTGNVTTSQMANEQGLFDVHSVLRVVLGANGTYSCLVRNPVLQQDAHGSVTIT
From the text: FIGS. 4A-4C: Binding properties of the B7H3 binders. (FIG. 4A) SDS-PAGE analysis of the purified A1 and B1 binders (VH-His-FLAG fusion) from E. coli. Two micrograms of purified B7H3-hFc, non-reduced (Non.) or reduced (Red.) by β-mercaptoethanol, were separated on an 8% SDS-PAGE gel. Protein bands were visualized by Coomassie blue R-250 staining. (FIG. 4B) Protein binding affinity measurement by ELISA. Five micrograms of B7H3-hFc were coated on the ELISA plate, and different concentrations of domain antibodies were incubated with the plate, and binding was detected by HRP conjugated anti-FLAG mouse monoclonal antibody M2. The binding curves were plotted using the software GraphPad Prism and the calculated EC50 values were determined by the software's algorithm of hyperbola one site binding. (FIG. 4C) Cell binding determination by flow cytometry. Ten microgram per mL domain antibody was co-incubated with one million cells. Antibody binding was visualized by APC conjugated anti-FLAG monoclonal antibody. The curves labelled “1” represent cells stained with secondary antibody only; the curves labelled “2” represent cells stained with A1 or B1 domain antibody.
The VH coding sequences of binders A1 and B1 were fused with His-FLAG tag at their C-termini and cloned into an E. coli expression vector. […] The purified yield was 2 mg/L (A1) and 10 mg/L fermentation (B1) respectively. […]

[2] = biological target: IgG control; test: phage ELISA
How it was run: (§1)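 Camel VHH phage from libraries of eight individual camels went through 3 rounds of panning on recombinant B7H3-Fc protein. The recorded ELISA signal reflects binding of the selected phage to immobilised human or other-species B7H3, or to control proteins, in a phage ELISA.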

[3] = biological target: T2, hB7H3-His (human, UniProt Q5ZPR3 29-461, limits assumed); test: ELISA, purified VHH
T2 construct: not shown: His tag
T2 sequence (looked up): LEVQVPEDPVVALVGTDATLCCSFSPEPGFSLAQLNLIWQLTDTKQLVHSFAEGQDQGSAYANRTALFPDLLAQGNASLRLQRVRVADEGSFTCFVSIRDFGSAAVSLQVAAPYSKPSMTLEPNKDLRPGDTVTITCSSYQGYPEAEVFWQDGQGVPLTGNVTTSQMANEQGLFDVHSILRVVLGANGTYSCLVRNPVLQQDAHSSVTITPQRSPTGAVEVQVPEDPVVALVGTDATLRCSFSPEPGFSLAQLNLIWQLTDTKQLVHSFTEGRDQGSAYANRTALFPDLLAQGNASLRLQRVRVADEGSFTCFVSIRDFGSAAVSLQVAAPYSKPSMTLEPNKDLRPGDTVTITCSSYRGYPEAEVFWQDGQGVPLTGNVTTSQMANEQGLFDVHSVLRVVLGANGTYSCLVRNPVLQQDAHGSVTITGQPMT
How it was run: (§2)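 Phage panning on recombinant B7H3-Fc yielded camel VHH nanobodies, which were then purified. Their binding was tested by ELISA against immobilised recombinant proteins, including B7H3 fusion proteins and proteins other than B7H3, and recorded as the ELISA signal.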

[4] = biological target: T3, monkey B7H3-His (monkey); test: ELISA, purified VHH
T3 chain: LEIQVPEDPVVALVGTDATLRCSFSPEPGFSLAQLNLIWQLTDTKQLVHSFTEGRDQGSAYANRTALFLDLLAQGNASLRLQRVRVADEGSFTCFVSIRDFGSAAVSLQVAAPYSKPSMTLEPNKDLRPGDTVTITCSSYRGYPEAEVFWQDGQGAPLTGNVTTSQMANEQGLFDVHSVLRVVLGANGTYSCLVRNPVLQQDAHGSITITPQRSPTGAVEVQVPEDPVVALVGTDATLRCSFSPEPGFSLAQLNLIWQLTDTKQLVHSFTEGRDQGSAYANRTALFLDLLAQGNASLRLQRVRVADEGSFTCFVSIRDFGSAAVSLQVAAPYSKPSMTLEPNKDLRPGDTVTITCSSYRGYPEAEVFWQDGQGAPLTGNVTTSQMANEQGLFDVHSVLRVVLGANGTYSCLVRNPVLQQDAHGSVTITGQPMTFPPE
How it was run: as §2

[5] = biological target: T2, hB7H3-His; test: ELISA, purified VHH; remark: listed apart in the source
How it was run: as §2

[6] = biological target: T4, rat B7H3-His (rat, UniProt Q7TPB4 29-244, limits assumed); test: ELISA, purified VHH
T4 construct: not shown: His tag
T4 sequence (looked up): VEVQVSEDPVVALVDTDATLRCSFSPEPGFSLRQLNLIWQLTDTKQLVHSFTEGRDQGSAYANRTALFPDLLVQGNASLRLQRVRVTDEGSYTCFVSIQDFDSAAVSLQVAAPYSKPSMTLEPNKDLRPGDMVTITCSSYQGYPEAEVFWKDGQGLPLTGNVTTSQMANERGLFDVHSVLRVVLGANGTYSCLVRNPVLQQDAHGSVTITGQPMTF
How it was run: as §2

[7] = biological target: Non-relevant antigen; test: ELISA, purified VHH
How it was run: as §2

[8] = biological target: T3, monkey B7H3-His; test: phage ELISA, cross-species
How it was run: as §1

[9] = biological target: T4, rat B7H3-His; test: phage ELISA, cross-species
How it was run: as §1

[10] = biological target: T5, mouse B7H3-His (mouse, UniProt Q8VE98 29-244, limits assumed); test: phage ELISA, cross-species
T5 construct: also called recombinant mouse B7H3-His protein; not shown: His tag
T5 sequence (looked up): T4 sequence (looked up) with R33A, A62S, D131N, L156V, M214L
How it was run: as §1

[11] = biological target: T6, human B7H3 (human, UniProt Q5ZPR3 29-466, limits assumed); test: phage ELISA, cross-species
T6 construct: also called human B7H3 protein
T6 sequence (looked up): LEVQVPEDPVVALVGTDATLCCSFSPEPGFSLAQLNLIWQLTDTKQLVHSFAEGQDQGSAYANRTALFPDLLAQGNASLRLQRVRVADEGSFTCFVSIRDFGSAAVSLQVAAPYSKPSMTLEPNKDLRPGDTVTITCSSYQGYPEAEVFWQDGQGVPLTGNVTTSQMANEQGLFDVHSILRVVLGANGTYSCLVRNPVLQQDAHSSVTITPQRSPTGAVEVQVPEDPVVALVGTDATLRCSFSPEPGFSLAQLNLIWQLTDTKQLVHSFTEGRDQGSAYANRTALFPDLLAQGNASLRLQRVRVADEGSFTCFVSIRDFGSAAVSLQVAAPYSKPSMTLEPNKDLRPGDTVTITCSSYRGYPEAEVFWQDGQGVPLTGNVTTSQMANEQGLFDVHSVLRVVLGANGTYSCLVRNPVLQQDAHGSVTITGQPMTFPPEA
How it was run: as §1

[12] = biological target: Non-relevant antigen; test: phage ELISA, cross-species
How it was run: as §1

[13] = biological target: PD-L1; test: ELISA, purified VHH, cross-reaction
PD-L1, sequence (Q9NZQ7 whole entry): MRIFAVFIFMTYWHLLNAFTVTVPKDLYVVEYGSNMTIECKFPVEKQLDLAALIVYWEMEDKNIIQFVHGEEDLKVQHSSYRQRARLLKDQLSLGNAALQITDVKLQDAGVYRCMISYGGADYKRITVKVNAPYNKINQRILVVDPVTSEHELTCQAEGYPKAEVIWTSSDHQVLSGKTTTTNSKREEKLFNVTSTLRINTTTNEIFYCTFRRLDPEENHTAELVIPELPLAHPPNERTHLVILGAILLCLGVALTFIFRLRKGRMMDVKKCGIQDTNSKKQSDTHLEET

EC50 [1]: 189 nM
B1: RFB1 (other)
VH: QEQLKESGGRLVTPGTPLTLTCTVSGFSPNNYGVSWVRQPPGKGLEWIGMSSTAGATYYANWAKGRFTISKTSTTVDLEITSPTTEDTATYFCAKGTPSLSYGNIWGPGTLVTVSSGGGGSGGGGSGGGGSAQGPTQTPGGGGSGTEVVVK
notes: Rabbit VH single-domain antibody expressed in E. coli as VH-His-FLAG fusion; also called rabbit antibody RFB1; R1-B1; not shown: 6x His tag and FLAG tag at the C-terminus

EC50 [1]: 403 nM
B2: RFA1 (other)
VH: QSLEESGGGLVTPGGTLTLTCTVSGFSLSSYGMSWVRQAPGKGLEWIGSMANNGDPYYASWAKGRFTISKTSTTVDLKITSPTTEDTATYFCVRAPWGSHSMWGPGTLVTVSSGGGGSGGGGSGGGGSDPVLTQTAGGGTNVEIK
notes: Rabbit VH single-domain antibody expressed in E. coli as VH-His-FLAG fusion; also called rabbit antibody RFA1; Al [sic]; not shown: 6x His tag and FLAG tag at the C-terminus

ELISA signal [2]: 0.0777
binding result [3]: no binding
ELISA signal [4]: 0.0799
ELISA signal [5]: 0.152
ELISA signal [6]: 0.0986
ELISA signal [7]: 0.115
ELISA signal [8]: 0.578
ELISA signal [9]: 0.981
ELISA signal [10]: 1.05
ELISA signal [11]: 2.53
ELISA signal [12]: 0.0684
ELISA signal [13]: 0.0522
B3: RWB2 (VHH)
VHH: AVQLVDSGGGSVQAGGSLRLSCVVSGYAFSTYDMAWFRQAPGEKCEWVSTVTNNGRTFYADSVKGRFIISRDNAKNILYLQMNSLKPEDTAVYSCAAAGVRWRCASGGNEGTQVTVSS
notes: Camel VHH; tag not described; also called camel antibody RWB2
